How the values were obtained:
[1] = molecular target: T1, PleC PAS AB-HK (Caulobacter crescentus)
T1 sequence (P37894 whole entry, looked up): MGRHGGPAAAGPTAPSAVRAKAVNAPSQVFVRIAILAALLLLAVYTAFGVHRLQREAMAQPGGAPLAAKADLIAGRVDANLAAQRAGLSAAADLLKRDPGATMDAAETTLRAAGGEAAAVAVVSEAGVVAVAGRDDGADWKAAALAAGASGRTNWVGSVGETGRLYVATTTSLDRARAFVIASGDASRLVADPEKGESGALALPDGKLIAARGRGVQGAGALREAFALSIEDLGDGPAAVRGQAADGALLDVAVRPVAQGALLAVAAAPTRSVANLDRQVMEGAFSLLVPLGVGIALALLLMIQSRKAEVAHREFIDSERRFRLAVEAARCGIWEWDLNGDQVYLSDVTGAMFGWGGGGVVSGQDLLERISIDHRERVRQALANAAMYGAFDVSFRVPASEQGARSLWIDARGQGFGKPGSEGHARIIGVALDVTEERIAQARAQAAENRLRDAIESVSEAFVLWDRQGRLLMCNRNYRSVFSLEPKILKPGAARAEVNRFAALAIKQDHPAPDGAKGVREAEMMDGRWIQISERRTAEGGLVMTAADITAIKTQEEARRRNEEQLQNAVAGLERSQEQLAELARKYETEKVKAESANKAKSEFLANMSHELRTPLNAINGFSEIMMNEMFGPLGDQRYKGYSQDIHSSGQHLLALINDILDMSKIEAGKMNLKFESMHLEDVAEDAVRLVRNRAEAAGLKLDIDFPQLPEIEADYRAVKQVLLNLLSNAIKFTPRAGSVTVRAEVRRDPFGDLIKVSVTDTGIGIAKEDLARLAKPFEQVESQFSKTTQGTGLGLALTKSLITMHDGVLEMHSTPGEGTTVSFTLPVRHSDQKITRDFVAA

[2] = molecular target: PleC-CcaS chimeric histidine kinase (chimera AB-1) (Caulobacter crescentus | not stated)
[3] = molecular target: PleC-CcaS chimeric histidine kinase (chimera AB-1) (Caulobacter crescentus | not stated); remark: listed apart in the source

B1: PodJ(250–635) (domain or fragment)
chain: LGAVETANPATGVQEGLDSLAATLTQKMEAARLEMAAKLRESADGRFDRMERKLGEMAAHVQAAEQRSAQAIERMGREIVGVADAFNRRVHAAESRNASAIEQVGGEVARIAASVEHKLNRADSVQAQALEKLGGEIARITEKLAERIGSAERRNALAIDDVGEQVARVTERLNQRHERSSQELVDRIRQSEERTLRMLEEAREKIDSRLSEAQRKLEAAPPSPPPAQAPAPVATAQRPVPPAASPFEDNYFSQAASFSTSEDEADAFDAPPAPARSFEVAEFPAAEPEEPAFAHDDYAIADGFEPESPRYEVEPEVSDFAPAEPSRPMSTRDIIEQARAAARAAAASEGKGGKAKSAKKEKASKASGSLFSGFGGFSTKKSKARL
ADP production IC50 (coupled enzyme assay of PleC PAS AB-HK) relative to that of PodJ(1–635) [1]: 2 fold

B2: PodJ(250–635) expressed in E. coli (domain or fragment)
chain: B1 chain
mCherry expression from the cpcG2 promoter through PleC-CcaS and CcaR in E. coli [2]: 3 fold

B3: YFP-PodJ (full-length PodJL) (natural protein)
chain: MTAASPWSVKGIDPKAREVAKDLARRSGMTLGEWLNRMIIEGDGQTADPRLAGDDVPNRAYLEIVKDDAPPRIEIAEHPADEVGRVALALDRLTQRIEAAEGRNAAAITGIDHSVRDALTRLGASEREQIAVAARFEGAVDELKTEQARATERLRRIESEAAGPRSAEALRALEGALGKVAGHLYEGEARTREAIATLEAKLNQQSSGDPSALVEAVVARLGERLEAAETRTSDALRELGASFQALDQRLGAVETANPATGVQEGLDSLAATLTQKMEAARLEMAAKLRESADGRFDRMERKLGEMAAHVQAAEQRSAQAIERMGREIVGVADAFNRRVHAAESRNASAIEQVGGEVARIAASVEHKLNRADSVQAQALEKLGGEIARITEKLAERIGSAERRNALAIDDVGEQVARVTERLNQRHERSSQELVDRIRQSEERTLRMLEEAREKIDSRLSEAQRKLEAAPPSPPPAQAPAPVATAQRPVPPAASPFEDNYFSQAASFSTSEDEADAFDAPPAPARSFEVAEFPAAEPEEPAFAHDDYAIADGFEPESPRYEVEPEVSDFAPAEPSRPMSTRDIIEQARAAARAAAASEGKGGKAKSAKKEKASKASGSLFSGFGGFSTKKSKARLGATVTTALVVFAAAGALGAGVGGLLLLNTDDGNNSPSRVAQAIAGRKADVEVNGPEADTTPGAPRAAVALTTGKVVPAEVEAPAAPPTNEAKALFEDAVRKIESGDRSGVELLKRAANGGYPAAQFYLSKMYEGGKNGVKVDMAEARRWSERAANGGDPRAMHNLALYYFKGEGGPRNSTTAASWFRKAADMGLVDSQFNLAQLYESGLGVSQNPAEAYKWYVIAGRAGDSTARGRATALRSQLTAEAQQTADRSALAFRPQTQVQTASLSSAAPAAANANLGVAQRVLSQLGYYQGPRDGVSSPALRMAIAAYQRDQGLPPTGSVDAETLNRLSVYAR
mCherry expression from the cpcG2 promoter through PleC-CcaS and CcaR in E. coli, relative to the empty vector control [3]: 10 fold
